The values below come from article PMC7476758, “Underground isoleucine biosynthesis pathways in E. coli” (eLife, 2020).

The test system of series [1] is CC(=O)SCCNC(=O)CCNC(=O)[C@H](O)C(C)(C)COP(=O)(O)OP(=O)(O)OC[C@H]1O[C@@H](n2cnc3c(N)ncnc32)[C@H](O)[C@@H]1OP(=O)(O)O. Put plainly: Michaelis-Menten kinetics of purified mutant enzyme, DTNB assay of released CoA (KM). In kind it is biochemical, Escherichia coli. The settings on record: mutation far from the active site.
The next series deals with N[C@@H](CO)C(=O)O. The series is described as follows: Michaelis-Menten kinetics of purified mutant enzyme, DTNB assay (KM). The following applies: mutation far from the active site. In kind it is biochemical, Escherichia coli.

“serine acetyltransferase (CysE) (Escherichia coli K-12; A33T)”: the Km was 5000 ± 2000 µM in series [1] and 500 ± 200 µM in the series with N[C@@H](CO)C(=O)O.

As usually defined, the Km is the concentration of substrate that gives half-maximal velocity.
